# In patent US6911324B2, “Induction of beta cell differentiation in human cells” (The Regents of the University of California, priority 2001, dated 2005):
# B1: betacellulin (protein, UniProt P35070 32-111, looked up)
# Betacellulin: DGNSTRSPETNGLLCGDPEENCAATTTQSKRKGHFSRCPKQYKHYCIKGRCRFVVAEQTPSCVCDEGYIGARCERVDLFY
# notes: factor reported to induce endocrine differentiation in cell lines and primary cells
# Tested on: βlox5 cells
# Experiment: RT-PCR analysis of pancreatic hormone gene expression in βlox5 cells
# Assay type: cell-based, human
# Conditions: βlox5 cells expressing PDX-1; data not shown
# Protocol: FIG. 2: RT-PCR analysis of pancreatic hormone gene expression in βlox5. The conditions tested were βlox5 cells grown in monolayer culture, βlox5 cells infected with a retroviral vector expressing PDX-1, βlox5 cells grown as three-dimensional aggregates, and βlox5 cells treated with exendin-4. FIG. 2(A) insulin; FIG. 2(B) quantitative RT-PCR analysis of insulin gene expression; FIG. 2(C) other pancreatic hormones. Exendin-4 (Sigma) was used at a concentration of 10 nM. RT-PCR for insulin, somatostatin, glucagon, and IAPP have been described previously (Itkin-Ansari et al., submitted). Quantitative RT-PCR was done by interpolation from a standard curve constructed using a plasmid containing the human insulin cDNA.
# PDX-1 also acted synergistically with cell-cell contact to further increase the level of somatostatin expression about 1,000-fold above the cells not expressing PDX-1, to a level similar to that found in normal human islets. To determine whether βlox5 could be induced to express pancreatic hormones, recombinant PDX-1 was expressed in βlox5 using a retroviral vector. […] Therefore, other factors were examined for their ability to induce hormone expression in βlox5 cells expressing PDX-1. […]
molecule,measurement,value
B1,effect on hormone expression in βlox5 cells,no effect
